{
  "source": "paper PMC8409985",
  "target": "truncated human ACE2 ectodomain (residues 19–613) with C-terminal AVI-tag and 6xHis-tag, biotinylated (human) (UniProt Q9BYF1)",
  "assay": "BLI",
  "data": [
    {"substance": "SARS-CoV-2 RBD variant N439K (from UniProt P0DTC2 319-541) (domain or fragment)", "values": [
      {"measurement": "t1/2", "result": 1.85, "unit": "min"}
    ]},
    {"substance": "SARS-CoV-2 RBD variant N501Y (from UniProt P0DTC2 319-541) (domain or fragment)", "values": [
      {"measurement": "t1/2", "result": 5.49, "unit": "min"}
    ]}
  ]
}
